Assay results from paper PMC3863716.
Like-named read-outs stand apart in the source and are kept apart here.

B1: human NMT2 (Homo sapiens) (protein)
chain: AKHRYQFWDTQPVPKLDEVITSHGAIEPDKDNVRQEPYSLPQGFMWDTLDLSDAEVLKELYTLLNENYVEDDDNMFRFDYSPEFLLWALRPPGWLLQWHCGVRVSSNKKLVGFISAIPANIRIYDSVKKMVEINFLCVHKKLRSKRVAPVLIREITRRVNLEGIFQAVYTAGVVLPKPIATCRYWHRSLNPRKLVEVKFSHLSRNMTLQRTMKLYRLPDVTKTSGLRPMEPKDIKSVRELINTYLKQFHLAPVMDEEEVAHWFLPREHIIDTFVVESPNGKLTDFLSFYTLPSTVMHHPAHKSLKAAYSFYNIHTETPLLDLMSDALILAKSKGFDVFNALDLMENKTFLEKLKFGIGDGNLQYYLYNWRCPGTDSEKVGLVLQ

Assays:
[1] = test system: CCCCCCCCCCCCCC(=O)SCCNC(=O)CCNC(=O)[C@H](O)C(C)(C)COP(=O)(O)OP(=O)(O)OC[C@H]1O[C@@H](n2cnc3c(N)ncnc32)[C@H](O)[C@@H]1OP(=O)(O)O; assay: purified protein
purified protein = substrate: CCCCCCCCCCCCCC(=O)SCCNC(=O)CCNC(=O)[C@H](O)C(C)(C)COP(=O)(O)OP(=O)(O)OC[C@H]1O[C@@H](n2cnc3c(N)ncnc32)[C@H](O)[C@@H]1OP(=O)(O)O; assay: purified protein; remark: listed apart in the source

Molecule	Km [1] [µM]	Km (purified protein) [µM]
human NMT1 (Homo sapiens)	8.24 ± 0.62	
B1		7.24 ± 0.79
